Results: PMC3157347

Molecular target: V. parahaemolyticus YeaZ, fragment 1-213 as in the crystals (Vibrio parahaemolyticus)
Experiment: crystal structure; X-ray, 3.1 Å; asymmetric unit with four subunits (two dimers related by a non-crystallographic two-fold axis); crystals of fragment 1-213; no nucleotide

Question: For “V. parahaemolyticus YeaZ, fragment 1-213 as in the crystals (domain or fragment)”, which stoichiometry N is on record?
Answer: 2
